Results taken from IntAct's records for PubMed 21331046.

B1: Oxysterols receptor LXR-beta (Homo sapiens), P55055 (parent)
chain: MSSPTTSSLDTPLPGNGPPQPGAPSSSPTVKEEGPEPWPGGPDPDVPGTDEASSACSTDWVIPDPEEEPERKRKKGPAPKMLGHELCRVCGDKASGFHYNVLSCEGCKGFFRRSVVRGGARRYACRGGGTCQMDAFMRRKCQQCRLRKCKEAGMREQCVLSEEQIRKKKIRKQQQESQSQSQSPVGPQGSSSSASGPGASPGGSEAGSQGSGEGEGVQLTAAQELMIQQLVAAQLQCNKRSFSDQPKVTPWPLGADPQSRDARQQRFAHFTELAIISVQEIVDFAKQVPGFLQLGREDQIALLKASTIEIMLLETARRYNHETECITFLKDFTYSKDDFHRAGLQVEFINPIFEFSRAMRRLGLDDAEYALLIAINIFSADRPNVQEPGRVEALQQPYVEALLSYTRIKRPQDQLRFPRMLMKLVSLRTLSSVHSEQVFALRLQDKKLPPLLSEIWDVHE
partner: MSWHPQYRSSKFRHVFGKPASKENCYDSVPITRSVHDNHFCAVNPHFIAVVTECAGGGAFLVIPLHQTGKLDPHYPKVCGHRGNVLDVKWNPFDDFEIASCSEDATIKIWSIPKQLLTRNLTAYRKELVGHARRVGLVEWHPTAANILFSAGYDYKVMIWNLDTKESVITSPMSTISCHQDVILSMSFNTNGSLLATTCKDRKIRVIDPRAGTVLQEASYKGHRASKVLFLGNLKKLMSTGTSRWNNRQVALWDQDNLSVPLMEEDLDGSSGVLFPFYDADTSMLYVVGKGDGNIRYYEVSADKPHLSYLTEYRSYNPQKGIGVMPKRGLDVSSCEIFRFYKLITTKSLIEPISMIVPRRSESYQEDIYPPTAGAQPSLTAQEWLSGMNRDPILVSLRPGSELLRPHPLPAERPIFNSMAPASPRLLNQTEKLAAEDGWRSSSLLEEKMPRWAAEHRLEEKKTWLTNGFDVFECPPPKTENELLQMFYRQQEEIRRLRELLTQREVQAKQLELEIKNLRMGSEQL
B2: Oxysterols receptor LXR-beta (Homo sapiens), P55055 (parent)
chain: B1 chain
B3: Oxysterols receptor LXR-beta (Homo sapiens), P55055 (parent)
chain: B1 chain
partner: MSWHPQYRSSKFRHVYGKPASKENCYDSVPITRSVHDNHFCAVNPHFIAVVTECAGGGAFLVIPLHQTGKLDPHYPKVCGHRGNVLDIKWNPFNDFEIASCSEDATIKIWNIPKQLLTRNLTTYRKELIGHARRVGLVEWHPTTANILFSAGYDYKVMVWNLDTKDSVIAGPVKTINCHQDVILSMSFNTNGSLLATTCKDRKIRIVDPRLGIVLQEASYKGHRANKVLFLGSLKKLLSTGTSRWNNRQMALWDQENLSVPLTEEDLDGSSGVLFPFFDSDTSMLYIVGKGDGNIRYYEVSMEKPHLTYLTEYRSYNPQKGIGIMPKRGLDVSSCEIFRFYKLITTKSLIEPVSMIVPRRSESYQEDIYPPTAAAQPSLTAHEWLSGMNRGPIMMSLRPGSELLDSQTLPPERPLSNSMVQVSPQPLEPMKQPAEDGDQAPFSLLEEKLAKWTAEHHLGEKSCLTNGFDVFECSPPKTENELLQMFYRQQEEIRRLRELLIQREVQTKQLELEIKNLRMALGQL

Variants of: B1
Settings: with cor2a_human CORO2A

Row | effect of a mutation on the interaction | Variant
1 | disrupting interaction | MSSPTTSSLDTPLPGNGPPQPGAPSSSPTVKEEGPEPWPGGPDPDVPGTDEASSACSTDWVIPDPEEEPERKRKKGPAPKMLGHELCRVCGDKASGFHYNVLSCEGCKGFFRRSVVRGGARRYACRGGGTCQMDAFMRRKCQQCRLRKCKEAGMREQCVLSEEQIRKKKIRKQQQESQSQSQSPVGPQGSSSSASGPGASPGGSEAGSQGSGEGEGVQLTAAQELMIQQLVAAQLQCNKRSFSDQPKVTPWPLGADPQSRDARQQRFAHFTELAIISVQEIVDFAKQVPGFLQLGREDQIALLKASTIEIMLLETARRYNHETECITFLKDFTYSKDDFHRAGLQVEFINPIFEFSRAMRRLGLDDAEYALLIAINIFSADRPNVQEPGRVEALQQPYVEALLSYTRIRRPQDQLRFPRMLMKLVSLRTLSSVHSEQVFALRLQDKRLPPLLSEIWDVHE [K409R;K447R]

Variants of: B2
Settings: with senp3_mouse Senp3, Q9EP97
Chain of senp3_mouse Senp3, Q9EP97 (Q9EP97 whole entry): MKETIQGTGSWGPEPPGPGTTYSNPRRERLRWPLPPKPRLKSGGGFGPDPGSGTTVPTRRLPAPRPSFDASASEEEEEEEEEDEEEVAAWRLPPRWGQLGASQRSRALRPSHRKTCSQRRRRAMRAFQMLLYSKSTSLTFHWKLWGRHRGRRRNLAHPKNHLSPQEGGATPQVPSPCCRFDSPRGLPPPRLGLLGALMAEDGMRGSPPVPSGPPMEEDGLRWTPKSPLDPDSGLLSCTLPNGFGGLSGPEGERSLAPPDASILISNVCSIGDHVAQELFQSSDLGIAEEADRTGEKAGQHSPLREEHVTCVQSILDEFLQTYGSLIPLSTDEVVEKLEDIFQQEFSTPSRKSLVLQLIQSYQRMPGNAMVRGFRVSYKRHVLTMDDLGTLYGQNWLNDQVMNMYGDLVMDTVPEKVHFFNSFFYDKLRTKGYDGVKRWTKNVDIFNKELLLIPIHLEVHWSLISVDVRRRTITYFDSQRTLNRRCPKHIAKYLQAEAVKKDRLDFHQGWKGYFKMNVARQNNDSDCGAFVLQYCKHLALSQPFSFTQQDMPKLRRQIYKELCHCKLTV

Row | effect of a mutation on the interaction | Variant
2 | disrupting interaction | MSSPTTSSLDTPLPGNGPPQPGAPSSSPTVKEEGPEPWPGGPDPDVPGTDEASSACSTDWVIPDPEEEPERKRKKGPAPKMLGHELCRVCGDKASGFHYNVLSCEGCKGFFRRSVVRGGARRYACRGGGTCQMDAFMRRKCQQCRLRKCKEAGMREQCVLSEEQIRKKKIRKQQQESQSQSQSPVGPQGSSSSASGPGASPGGSEAGSQGSGEGEGVQLTAAQELMIQQLVAAQLQCNKRSFSDQPKVTPWPLGADPQSRDARQQRFAHFTELAIISVQEIVDFAKQVPGFLQLGREDQIALLKASTIEIMLLETARRYNHETECITFLKDFTYSKDDFHRAGLQVEFINPIFEFSRAMRRLGLDDAEYALLIAINIFSADRPNVQEPGRVEALQQPYVEALLSYTRIKRPQDQLRFPRMLMKLVALRTLSSVHSEQVFALRLQDKKLPPLLSEIWDVHE [S426A]

Variants of: B3
Settings: with cor2a_mouse Coro2a

Row | effect of a mutation on the interaction | Variant
3 | disrupting interaction | MSSPTTSSLDTPLPGNGPPQPGAPSSSPTVKEEGPEPWPGGPDPDVPGTDEASSACSTDWVIPDPEEEPERKRKKGPAPKMLGHELCRVCGDKASGFHYNVLSCEGCKGFFRRSVVRGGARRYACRGGGTCQMDAFMRRKCQQCRLRKCKEAGMREQCVLSEEQIRKKKIRKQQQESQSQSQSPVGPQGSSSSASGPGASPGGSEAGSQGSGEGEGVQLTAAQELMIQQLVAAQLQCNKRSFSDQPKVTPWPLGADPQSRDARQQRFAHFTELAIISVQEIVDFAKQVPGFLQLGREDQIALLKASTIEIMLLETARRYNHETECITFLKDFTYSKDDFHRAGLQVEFINPIFEFSRAMRRLGLDDAEYALLIAINIFSADRPNVQEPGRVEALQQPYVEALLSYTRIKRPQDQLRFPRMLMKLVDLRTLSSVHSEQVFALRLQDKKLPPLLSEIWDVHE [S426D]
